Biological target: T1, Aβ42-GFP (Homo sapiens, UniProt P05067)
T1 construct: a chimeric fusion of the human Aβ(1-42) peptide (Aβ42) with GFP; expressed in transfected cells; host or cells: E. coli BL21(DE3)
Assay: High-throughput sequencing of pSICLOPPS vectors isolated after bacterial sorting for enhanced Aβ42-GFP fluorescence
Details: for Reads/Total TXXXR reads (%): relative to total TXXXR reads; for Reads/Total pentapeptide reads (%): relative to total pentapeptide reads; for Reads/Total peptide reads (%): relative to total peptide reads
Source text: On the other hand, very few bioactive sequences resembling AβC5-34 should exist. […] The peptide-encoding vectors contained in these clones were isolated and the peptide-encoding region of approximately 5.6 million of these plasmids was sequenced using an Ion Torrent high-throughput sequencing platform. […] First, pentapeptides were the dominant peptide species within the sorted pool (FIG. 12D), in agreement with previous observations (FIG. 8G). Second, the most prevalent motif among the selected pentapeptide sequences were TXXXR pentapeptides (˜47% of the selected pentapeptide-encoding pSICLOPPS plasmids; ˜42% of the unique selected pentapeptide sequences) (Table 1), in accordance with previous observations (FIG. 8G). […] At position 2, Thr, Ala, and Val were preferred, while aromatic residues (Phe, Trp, Tyr) were completely excluded from the selected TXXXR peptide pool, in full agreement with our site-directed mutagenesis studies. At the highly variable position 3, the complete absence of the negatively charged amino acids Glu and Asp among the selected sequences was notable (FIG. 12E). […] It is noteworthy, that Lys and Gln residues were practically absent from all positions, while the β sheet-breaking amino acid Pro that is typically included in designed peptide-based inhibitors of amyloid aggregation appeared with strikingly low frequencies (FIG. 12E).
Electrocompetent E. coli BL21(DE3) cells (Novagen, USA) carrying either the expression vector pETSOD1(A4V)-GFP, which produces SOD1(A4V)-GFP under control of the strong bacteriophage T7 promoter, or pETAβ42-GFP, which produces Aβ42-GFP under control of the T7 promoter, were co-transformed with the combined pSICLOPPS-NuX1X2X3-X5 vector library. Approximately 10^8 transformants carrying both the vector library and either pETSOD1(A4V)-GFP or pETAβ42-GFP vectors were harvested, pooled together, and grown in Luria-Bertani (LB) liquid medium containing either 0.005% (pETSOD1(A4F)-GFP) or 0.002% (pETAβ42-GFP) L-arabinose—the inducer of cyclic peptide production—at 37° C. with shaking. When the optical density at 600 nm (OD600) of the bacterial culture was about 0.5, 0.01 (pETSOD1(A4F)-GFP) or 0.1 (pETAβ42-GFP) mM isopropyl-β-D-thiogalactoside (IPTG) was added to the medium to induce overexpression of the reporter. […] The isolated cells were re-grown and screened for additional rounds in an identical manner until the desired enrichment in high-fluorescence clones was achieved.
For the characterization of the initial libraries, a combined pSICLOPPS-NuX1X2X3-X5 vector library was prepared containing approximately equal amounts of each one of the tetra-, penta- and hexapeptide sub-libraries. These samples were digested with NcoI and BsrGI and the resulting ˜250 bp product that contained the variable peptide-encoding region was isolated. High-throughput sequencing analysis was performed using an Ion Torrent high-throughput sequencing platform. From the obtained data, all the sequences with mismatches outside of the variable peptide-encoding region were removed, and only the 12-, 15- or 18-bp-long peptide-encoding sequences were subjected to further analysis. The libraries of the selected cyclic peptides that enhance either SOD1(A4V)-GFP or Aβ42-GFP fluorescence were sequenced in a similar manner, with the only exception being that all sequences including stop codons were discarded from subsequent analysis.

[1] = after the second round of bacterial sorting
[2] = high-throughput sequencing of isolated pSICLOPPS-NuX1X2X3-X5 vectors after the second round of bacterial sorting for enhanced Aβ42-GFP fluorescence, selected cyclo-TXXXR pentapeptides
[3] = after the second round of bacterial sorting for enhanced Aβ42-GFP fluorescence
[4] = pSICLOPPS-NuX1X2X3-X5 vectors after the second round of bacterial sorting for enhanced Aβ42-GFP fluorescence

Substance | Reads/Total TXXXR reads (%) [1] | Reads/Total pentapeptide reads (%) [1] | Reads/Total peptide reads (%) [1] | Number of reads [2] | Reads/Total TXXXR reads (%) [3] | Reads/Total pentapeptide reads (%) [3] | Reads/Total peptide reads (%) [3] | Number of reads [4]
AβC5-298 (TTRGR; cyclic) | 0.011% | 0.005% | 0.004% | 201 | – | – | – | –
AβC5-299 (TTVGR; cyclic) | 0.011% | 0.005% | 0.004% | 200 | – | – | – | –
AβC5-301 (TTTRR; cyclic) | 0.010% | 0.005% | 0.004% | 191 | – | – | – | –
AβC5-304 (TSINR; cyclic) | 0.010% | 0.004% | 0.004% | 182 | – | – | – | –
AβC5-305 (TTADR; cyclic) | 0.010% | 0.004% | 0.004% | 181 | – | – | – | –
AβC5-315 (TTSER; head-to-tail cyclic) | 0.008% | 0.004% | 0.003% | 158 | – | – | – | –
AβC5-316 (TTCAR; head-to-tail cyclic) | 0.008% | 0.004% | 0.003% | 157 | – | – | – | –
AβC5-317 (TTAWR; head-to-tail cyclic) | 0.008% | 0.004% | 0.003% | 156 | – | – | – | –
AβC5-320 (TTVER; head-to-tail cyclic) | 0.008% | 0.004% | 0.003% | 150 | – | – | – | –
AβC5-321 (TTTFR; head-to-tail cyclic) | 0.008% | 0.004% | 0.003% | 148 | – | – | – | –
AβC5-323 (TAVDR; head-to-tail cyclic) | 0.008% | 0.004% | 0.003% | 147 | – | – | – | –
AβC5-325 (TVWIR; head-to-tail cyclic) | 0.008% | 0.004% | 0.003% | 144 | – | – | – | –
AβC5-329 (TTVRR; head-to-tail cyclic) | 0.007% | 0.003% | 0.003% | 141 | – | – | – | –
AβC5-333 (THVRR; head-to-tail cyclic) | 0.007% | 0.003% | 0.003% | 137 | – | – | – | –
AβC5-343 (TNLDR; head-to-tail cyclic) | 0.007% | 0.003% | 0.003% | 125 | – | – | – | –
AβC5-344 (TTPGR; head-to-tail cyclic) | 0.007% | 0.003% | 0.003% | 125 | – | – | – | –
AβC5-348 (TTLTR; head-to-tail cyclic) | 0.006% | 0.003% | 0.003% | 119 | – | – | – | –
AβC5-355 (TATVR; head-to-tail cyclic) | 0.006% | 0.003% | 0.003% | 115 | – | – | – | –

Substance | Reads/Total TXXXR reads (%) [1] | Reads/Total pentapeptide reads (%) [1] | Reads/Total peptide reads (%) [1] | Number of reads [2] | Reads/Total TXXXR reads (%) [3] | Reads/Total pentapeptide reads (%) [3] | Reads/Total peptide reads (%) [3] | Number of reads [4]
AβC5-359 (TAMWR; head-to-tail cyclic) | 0.006% | 0.003% | 0.002% | 110 | – | – | – | –
AβC5-361 (TTKWR; head-to-tail cyclic) | 0.006% | 0.003% | 0.002% | 108 | – | – | – | –
AβC5-362 (TTWDR; head-to-tail cyclic) | 0.006% | 0.003% | 0.002% | 107 | – | – | – | –
AβC5-364 (TTMAR; head-to-tail cyclic) | 0.006% | 0.003% | 0.002% | 106 | – | – | – | –
AβC5-365 (TTGGR; head-to-tail cyclic) | 0.006% | 0.003% | 0.002% | 106 | – | – | – | –
AβC5-366 (TTMVR; head-to-tail cyclic) | 0.006% | 0.003% | 0.002% | 105 | – | – | – | –
AβC5-375 (TNLAR; head-to-tail cyclic) | 0.005% | 0.002% | 0.002% | 97 | – | – | – | –
AβC5-376 (TIRDR; head-to-tail cyclic) | 0.005% | 0.002% | 0.002% | 96 | – | – | – | –
AβC5-378 (TTTGR; head-to-tail cyclic) | 0.005% | 0.002% | 0.002% | 96 | – | – | – | –
AβC5-379 (TRLGR; head-to-tail cyclic) | 0.005% | 0.002% | 0.002% | 95 | – | – | – | –
AβC5-381 (TTHTR; head-to-tail cyclic) | 0.005% | 0.002% | 0.002% | 93 | – | – | – | –
AβC5-382 (TTITR; head-to-tail cyclic) | 0.005% | 0.002% | 0.002% | 92 | – | – | – | –
AβC5-384 (TTYTR; head-to-tail cyclic) | 0.005% | 0.002% | 0.002% | 90 | – | – | – | –
AβC5-385 (TTLYR; head-to-tail cyclic) | – | – | – | – | 0.005% | 0.002% | 0.002% | 90
AβC5-389 (THLDR; head-to-tail cyclic) | – | – | – | – | 0.005% | 0.002% | 0.002% | 89
AβC5-391 (TLLIR; head-to-tail cyclic) | – | – | – | – | 0.005% | 0.002% | 0.002% | 88
AβC5-392 (TTCDR; head-to-tail cyclic) | – | – | – | – | 0.005% | 0.002% | 0.002% | 87
AβC5-393 (TTGRR; head-to-tail cyclic) | – | – | – | – | 0.005% | 0.002% | 0.002% | 87
